The results in this text go back to patent EP4470554A1, “USE OF KALLIKREIN I OR DERIVATIVE THEREOF IN TREATMENT OF VCI, PSCI OR CSVD” (Zonhon Biopharma Institute, Inc., priority 2022, dated 2023).

This experiment deals with T1, LMWK (Homo sapiens, UniProt P01042).
T1 sequence (P01042 19-427 isoform P01042-2 limits assumed): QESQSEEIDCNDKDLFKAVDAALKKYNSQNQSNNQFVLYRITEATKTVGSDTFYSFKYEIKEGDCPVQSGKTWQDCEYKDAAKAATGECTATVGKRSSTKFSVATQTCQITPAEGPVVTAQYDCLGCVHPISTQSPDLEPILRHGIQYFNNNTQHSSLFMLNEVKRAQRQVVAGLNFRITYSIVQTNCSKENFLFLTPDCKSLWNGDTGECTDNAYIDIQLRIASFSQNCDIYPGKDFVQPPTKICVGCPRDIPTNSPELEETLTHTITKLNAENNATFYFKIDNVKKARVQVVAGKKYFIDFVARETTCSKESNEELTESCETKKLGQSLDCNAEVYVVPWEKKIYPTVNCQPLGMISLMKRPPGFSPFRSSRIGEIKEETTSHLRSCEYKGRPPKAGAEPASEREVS
Briefly: In vitro activity evaluation based on natural substrates (enzymatic reaction with LMWK, bradykinin quantified by UPLC). As to conditions: 37°C, 15min. It counts as biochemical. How it is done:
This example compared the enzymatic reaction to produce the effector molecule bradykinin at different ratios of substrate (LMWK) to enzyme (KLK1 or its PEG modified KLK1). The produced effector molecules were separated by reverse phase chromatography, the peak area of the product is calculated, and the curve of bradykinin production with different ratios of substrate to enzyme was drawn. Compare the amount of effector molecules produced by different test samples under the same reaction methods. Through this in vitro method simulating the in vivo effect, the in vivo effects of different tested samples were indirectly compared.
Kb was KLK1 extracted from porcine pancreas. PEG-Kb was PEG10K-modified Kb. PEG10K-hKLK1X1 and PEG-Kb can be prepared according to the conventional method of polyethylene glycol modified drugs.
The samples were mixed according to the following table (in PEG modified samples, the molar mass of the modified active substance was converted). The mixed samples were placed in a 37°C thermostat, incubated for 15min, accurately timed, and the reaction was terminated by adding 50% acetic acid solution according to the volume ratio of 10:1.
After the termination of the reaction, the sample was placed in a desktop centrifuge, centrifuged at 12000rpm for 5min, and the supernatant was taken. Detect with Waters ACQUITY UPLC H-Class, the mobile phase A was 0.1% TFA-H2O, the mobile phase B was 0.1% TFA-ACN, the detection wavelength was 214nm, the column temperature was 30°C, the sample loading volume was 10µl, the flow rate was 0.2ml/min, the running time was 35min, and the running gradient was as follows: Table 3
According to the UPLC chromatograph results of the enzymatic reaction mixture, the chromatographic peak with retention time of 13±0.5min(the peak position of bradykinin) was integrated and summed, and compared with the peak area of per unit mass bradykinin (1mg/ml, loading volume 10µl) to calculate the concentration of bradykinin generated by the enzymatic reaction. The amount of bradykinin produced was calculated according to the total reaction system in Table 2, and finally converted to the amount of bradykinin(µg/mg) produced per milligram of enzyme at each molar ratio.

Turning to “PEG-Kb: PEG10K-modified Kb [reference compound]”, the Bradykinin production by setting is: (Molar ratio of substrate to enzyme 1: 1) 11.28 µg/mg (enzyme); (Molar ratio of substrate to enzyme 5: 1) 44.63 µg/mg (enzyme); (Molar ratio of substrate to enzyme 10: 1) 79.99 µg/mg (enzyme); (Molar ratio of substrate to enzyme 15: 1) 103.85 µg/mg (enzyme); (Molar ratio of substrate to enzyme 20: 1) 119.89 µg/mg (enzyme).
